Assay [1] addresses C-terminally hexahistidine-tagged SlyD from Escherichia coli (E. coli) (UniProt P0A9K9). As to the kind of experiment: ITC; VP-ITC, 30°C, 10 mM potassium phosphate pH 7.6 or 7.8; His-tagged SlyD or variant 30 μM in the cell; HiPIP precursor injected, 200 μM (Fig 3) or 100 μM (Fig 4).
In assay [2] the target is T1, SlyD from Escherichia coli, C-terminally tagged with a Strep-tag II (E. coli, UniProt P0A9K9 1-196, 35S-methionine label (peptide arrays)).
T1 construct: SlyD, chaperone and FKBP-family prolyl isomerase, Escherichia coli; also called Strep-tagged SlyD; 35S-labeled SlyD; source: E. coli BW25113 ΔdnaK (pBW-slyD-strep), soluble, purified (StrepTactin) for the peptide arrays; not shown: Strep-tag II, C-terminal, kept
T1 sequence: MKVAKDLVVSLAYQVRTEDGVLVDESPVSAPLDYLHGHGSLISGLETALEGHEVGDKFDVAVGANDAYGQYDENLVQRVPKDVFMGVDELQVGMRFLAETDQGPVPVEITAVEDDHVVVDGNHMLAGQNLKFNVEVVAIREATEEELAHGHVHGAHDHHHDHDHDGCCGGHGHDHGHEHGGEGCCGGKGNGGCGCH
Nature of the assay: peptide or protein array; 13-mer peptides synthesised in spots on cellulose membrane; 35S-methionine-labelled Strep-tagged SlyD incubated 2 h at room temperature, washed in TBS (31 mM Tris-HCl pH 7.6, 170 mM NaCl, 6.4 mM KCl), phosphorimaging. The note with it: both partners purified.

The target of assay [3] is SlyD F96A, C-terminally His-tagged (E. coli, UniProt P0A9K9 1-196, F96A). Nature of the assay: ITC.
Assay [4] deals with SlyD F96N, C-terminally His-tagged (E. coli, UniProt P0A9K9 1-196, F96N). Nature of the assay: ITC.
Assay [5] deals with SlyD F96G, C-terminally His-tagged (E. coli, UniProt P0A9K9 1-196, F96G). As to the kind of experiment: ITC.
Assay [6] addresses SlyD E89A, C-terminally His-tagged (E. coli, UniProt P0A9K9 1-196, E89A). As to the kind of experiment: ITC.
The target in assay [7] is SlyD F84N/F96N, C-terminally His-tagged (E. coli, UniProt P0A9K9 1-196, F84N | F96N). Nature of the assay: ITC.
The target of assay [8] is SlyD F84N, C-terminally His-tagged (E. coli, UniProt P0A9K9 1-196, F84N). Nature of the assay: ITC.
Assay [9] concerns the target SlyD E113A, C-terminally His-tagged (E. coli, UniProt P0A9K9 1-196, E113A). Nature of the assay: ITC.
Assay [10] addresses T2, C-terminally hexahistidine-tagged SlyD from Escherichia coli (E. coli, UniProt P0A9K9 1-196).
T2 chain: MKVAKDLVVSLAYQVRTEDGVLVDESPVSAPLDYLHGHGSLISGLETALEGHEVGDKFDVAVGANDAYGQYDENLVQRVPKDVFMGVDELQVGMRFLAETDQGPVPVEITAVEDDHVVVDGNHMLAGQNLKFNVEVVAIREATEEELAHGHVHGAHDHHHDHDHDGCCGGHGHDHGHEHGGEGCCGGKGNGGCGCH
Nature of the assay: ITC.

The target of assay [11] is single-exchange SlyD variants of the hydrophobic active site (F84A, F84N, F96A, F96G, F96N). Nature of the assay: ITC; VP-ITC, 30°C, 10 mM potassium phosphate pH 7.6 or 7.8; His-tagged SlyD or variant 30 μM in the cell; HiPIP precursor injected, 200 μM (Fig 3) or 100 μM (Fig 4).
Assay [12] concerns the target T3, C-terminally hexahistidine-tagged SlyD from Escherichia coli (E. coli, UniProt P0A9K9 1-196).
T3 construct: SlyD, chaperone and FKBP-family prolyl isomerase, Escherichia coli; also called His-tagged SlyD; wild type; not shown: His6, C-terminal, kept
T3 sequence: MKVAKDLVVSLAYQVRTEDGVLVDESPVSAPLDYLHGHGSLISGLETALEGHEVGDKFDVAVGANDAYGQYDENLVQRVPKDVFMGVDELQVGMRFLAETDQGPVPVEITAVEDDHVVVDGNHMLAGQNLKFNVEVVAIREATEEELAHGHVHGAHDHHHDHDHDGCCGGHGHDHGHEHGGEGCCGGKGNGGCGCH
Described as above. The note with it: both partners purified.

The target in assay [13] is T4, SlyD D101A, C-terminally His-tagged (E. coli, UniProt P0A9K9 1-196, D101A).
T4 construct: SlyD, Escherichia coli; not shown: His6, C-terminal, kept
T4 sequence: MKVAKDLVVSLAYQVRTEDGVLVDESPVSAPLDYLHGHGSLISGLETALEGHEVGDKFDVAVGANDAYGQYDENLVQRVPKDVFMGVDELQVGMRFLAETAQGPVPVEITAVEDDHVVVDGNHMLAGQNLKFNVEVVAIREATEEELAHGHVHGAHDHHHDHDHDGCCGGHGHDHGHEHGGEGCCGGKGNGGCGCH
Described as above. The note with it: both partners purified.

Assay [14] concerns the target T5, SlyD E108A, C-terminally His-tagged (E. coli, UniProt P0A9K9 1-196, E108A).
T5 construct: SlyD, Escherichia coli; not shown: His6, C-terminal, kept
T5 sequence: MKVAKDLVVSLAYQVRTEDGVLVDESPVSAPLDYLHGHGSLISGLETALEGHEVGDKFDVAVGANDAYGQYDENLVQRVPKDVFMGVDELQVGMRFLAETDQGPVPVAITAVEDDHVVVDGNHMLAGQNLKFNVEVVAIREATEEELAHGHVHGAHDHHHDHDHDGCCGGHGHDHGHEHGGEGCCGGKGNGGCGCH
Described as above. The following applies: both partners purified.

The target in assay [15] is T6, SlyD Y68S, C-terminally hexahistidine-tagged (Escherichia coli, UniProt P0A9K9 1-196, Y68S).
T6 construct: SlyD of Escherichia coli (FKBP-type prolyl isomerase and chaperone); not shown: His6, C-terminal, kept
T6 sequence: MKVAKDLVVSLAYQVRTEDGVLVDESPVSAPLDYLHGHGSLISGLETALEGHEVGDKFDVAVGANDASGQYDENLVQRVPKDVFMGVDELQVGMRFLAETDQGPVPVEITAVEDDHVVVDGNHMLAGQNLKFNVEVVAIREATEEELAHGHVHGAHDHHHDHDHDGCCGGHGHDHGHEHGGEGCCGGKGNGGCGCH
As to the kind of experiment: ITC; VP-ITC, 30°C, 10 mM potassium phosphate buffer (pH 7.6 or 7.8); SlyD variant 30 μM in the cell, HiPIP precursor 100 μM injected (2x 22 injections of 10 μL). The note with it: both partners purified.

The target of assay [16] is T7, SlyD E73A, C-terminally hexahistidine-tagged (Escherichia coli, UniProt P0A9K9 1-196, E73A).
T7 construct: SlyD of Escherichia coli (FKBP-type prolyl isomerase and chaperone); not shown: His6, C-terminal, kept
T7 sequence: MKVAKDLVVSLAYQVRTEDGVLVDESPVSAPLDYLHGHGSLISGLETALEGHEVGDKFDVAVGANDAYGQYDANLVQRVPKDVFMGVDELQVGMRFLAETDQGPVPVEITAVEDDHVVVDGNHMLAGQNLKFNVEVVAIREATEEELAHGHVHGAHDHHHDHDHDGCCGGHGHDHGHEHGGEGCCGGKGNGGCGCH
The assay is described as above. The following applies: both partners purified.

The target of assay [17] is T8, SlyD E89A, C-terminally hexahistidine-tagged (Escherichia coli, UniProt P0A9K9 1-196, E89A).
T8 construct: SlyD of Escherichia coli (FKBP-type prolyl isomerase and chaperone); not shown: His6, C-terminal, kept
T8 sequence: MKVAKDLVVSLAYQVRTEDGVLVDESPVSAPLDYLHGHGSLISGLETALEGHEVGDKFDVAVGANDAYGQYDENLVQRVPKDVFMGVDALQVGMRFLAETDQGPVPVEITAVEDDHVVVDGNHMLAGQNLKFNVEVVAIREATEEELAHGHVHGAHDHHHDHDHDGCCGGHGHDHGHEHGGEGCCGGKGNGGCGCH
The description is as above. The following applies: both partners purified.

Assay [18] addresses T9, SlyD E113A, C-terminally hexahistidine-tagged (Escherichia coli, UniProt P0A9K9 1-196, E113A).
T9 construct: SlyD of Escherichia coli (FKBP-type prolyl isomerase and chaperone); not shown: His6, C-terminal, kept
T9 sequence: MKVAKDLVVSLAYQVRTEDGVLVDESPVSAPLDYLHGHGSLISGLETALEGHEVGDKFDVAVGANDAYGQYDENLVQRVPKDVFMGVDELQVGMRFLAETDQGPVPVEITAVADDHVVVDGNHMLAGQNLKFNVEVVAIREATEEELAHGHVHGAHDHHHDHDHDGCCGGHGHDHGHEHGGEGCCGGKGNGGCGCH
The assay is described as above. The note with it: both partners purified.

Assay [19] concerns the target T10, SlyD D115A, C-terminally hexahistidine-tagged (Escherichia coli, UniProt P0A9K9 1-196, D115A).
T10 construct: SlyD of Escherichia coli (FKBP-type prolyl isomerase and chaperone); not shown: His6, C-terminal, kept
T10 sequence: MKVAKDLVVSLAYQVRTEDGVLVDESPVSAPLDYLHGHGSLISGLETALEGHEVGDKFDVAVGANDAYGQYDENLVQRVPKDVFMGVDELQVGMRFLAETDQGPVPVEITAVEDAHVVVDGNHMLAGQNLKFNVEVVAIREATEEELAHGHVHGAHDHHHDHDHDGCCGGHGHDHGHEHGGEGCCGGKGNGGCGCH
The assay is described as above. The following applies: both partners purified.

cellulose membrane = Whatman 540 cellulose membrane solid support derivatized with two β-Ala residues; βAla = NCCC(=O)O

Turning to “HiPIP precursor with an RR>KK exchange (from UniProt P00260 38-122) (natural protein)”, in assay [1], the dissociation constant Kd was found to be 1180 nM and the dH is -7.7 kcal/mol.

B1: twin-lysine peptide in an oligoglycine environment (GGGGGXXGGGGGG, X = K) (peptide)
peptide: Ac-GGGGGKKGGGGGG-{βAla-βAla-cellulose membrane}
notes: the printed pattern GGGGGXXGGGGGG with X = K; The acetyl group and the spacer are told in the methods for the spot synthesis in general; also called lysines in a glycine environment; source: synthetic peptide, spot synthesis on cellulose membrane
As to B1, the binding result in assay [2] was “binds”.

B2: twin-arginine peptide in an oligoglycine environment (GGGGGXXGGGGGG, X = R) (peptide)
peptide: Ac-GGGGGRRGGGGGG-{βAla-βAla-cellulose membrane}
notes: the printed pattern GGGGGXXGGGGGG with X = R; The acetyl group and the spacer are told in the methods for the spot synthesis in general; also called arginines in a glycine environment; source: synthetic peptide, spot synthesis on cellulose membrane
As for B2, in [2], the binding result is “binds”.

B3: wild type HiPIP precursor from Allochromatium vinosum (natural protein, UniProt P00260 1-122, looked up)
chain: MSDKPISKSRRDAVKVMLGTAAAIPMINLVGFGTARASAPANAVAADDATAIALKYNQDATKSERVAAARPGLPPEEQHCANCQFMQADAAGATDEWKGCQLFPGKLINVNGWCASWTLKAG
notes: HiPIP (high-potential iron-sulfur protein), Allochromatium vinosum; the precursor with its Tat signal peptide; Called a fully folded Tat substrate; also called RR-HiPIP; signal-peptide-containing HiPIP precursor
B3: the Kd in assay [3] was 4900 nM; in assay [4], 8900 nM; in assay [5] it was 5700 nM; in [6], 400 nM; in [7] it was above 360000 nM; in assay [8], 6600 nM. The Kd is 500 nM in [9]; 400 nM in [10]; 4000 to 10000 nM in [11]; around 350 nM in [12]; 950 nM in assay [13]; 1820 nM in [14]. Besides, the dH in assay [12] is around -9.06 kcal/mol.

B4: HiPIP precursor (RR-HiPIP) from Allochromatium vinosum (natural protein)
chain: MSDKPISKSRRDAVKVMLGTAAAIPMINLVGFGTARASAPANAVAADDATAIALKYNQDATKSERVAAARPGLPPEEQHCANCQFMQADAAGATDEWKGCQLFPGKLINVNGWCASWTLKAG
modifications: HiPIP precursor; fully folded, [4Fe-4S] cluster presumed; signal peptide retained
As for B4, the Kd came out at 299 nM in assay [15]; 321 nM in [16]; 380 nM in [17]; 493 nM in assay [18]; 272 nM in assay [19].

B5: HiPIP precursor with an RR>QQ exchange (natural protein)
chain: MSDKPISKSQQDAVKVMLGTAAAIPMINLVGFGTARASAPANAVAADDATAIALKYNQDATKSERVAAARPGLPPEEQHCANCQFMQADAAGATDEWKGCQLFPGKLINVNGWCASWTLKAG
modifications: HiPIP precursor; [4Fe-4S] cluster presumed; RR>QQ positions derived from primer hip-QQ-F, which encodes DKPISKSQQDAVKVML
In the case of B5, the Kd in [12] came to 38700 ± 2000 nM.

The values above are taken from paper PMC11198818, “Positive charges promote the recognition of proteins by the chaperone SlyD from Escherichia coli” (PLOS ONE, 2024).
